# Assay: yeast display, Sf9 membrane polyspecificity reagent, FACS + sequencing; frameworks hold sequencing errors
# How it was run: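 A nanobody's polyreactivity label depends on the gate it was sorted from. Yeast display cells were stained with 10% biotinylated, detergent-solubilized Sf9 membrane reagent for 1 hour at 4 °C, enriched on streptavidin microbeads and sorted by FACS. The low and high (top ~1%) gates were set on anti-HA fluorescence for expression and streptavidin fluorescence for reagent binding.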
row,Sequence,polyreactivity (PSR sort gate)
1,QVQLVESGGGLVQAGGSLRLSCAASGRTFYFNGMGWYRQAPGKERELVAAIRWRDSNTYYADSVKGRFTISRDNAKNTVYLQMNSLKPEDTAVYYCNVGIYSYGINGRYDYWGQGTQVTVSS,high polyreactivity
2,QVQLVESGGGLVQAGGSLRLSCAASGRTFYFNGMGWYRQAPGQERELVARISRRGGSTYYADSVKGRFTISRDNAKNTVYLQMNSLKPEDTAVYYCNTANYLLYDWGQGTQVNVSS,high polyreactivity
3,QVQLVESGGGLVQAGGSLRLSCAASGRTFYFYAMGWSRQSPGKERELVADIRGISGSTYYADSVKGRFTISRDNAKNTVYLQMNSLKPEDTAVYYCAADPYLGRAWRGRGYYWGQGTQVTVSS,high polyreactivity
4,QVQLVESGGGLVQAGGSLRLSCAASGRTFYFYAMGWYRQAPGKERELVAAITVRGGSTYYADSVKGRFTISRYNAKNTVYLQMNSLKPEDTAVYYCAADPYPYYGAYDYWGQGTQVTVSS,high polyreactivity
5,QVQLVESGGGLVQAGGSLRLSCAASGRTFYFYAMGWYRQAPGKERELVASISWSGGRTYYADSVKGRFTISRDNAKNTVYLQMNSLKPEVTSVYYSAAALWTGYSWGQATQVTVSS,low polyreactivity
6,QVQLVESGGGLVQAGGSLRLSCAASGRTFYGNAMGWYRQAPGKERELVAAISWSGCGTYYADSVKGRFTISRDNAKNTVYLQMNSLKPEDTAVYYCARTLFGRSANRYGYWGQGTQVTVSS,high polyreactivity
7,QVQLVESGGGLVQAGGSLRLSCAASGRTFYGNAMGWYRQAPGKERELVAGITRGGSTYYADSVKGRFTISRDNAKNTVYLQMNSLKPEDTAVYYCAATRYYSWGSRGGYWGQGTQVTVSS,high polyreactivity
8,QVQLVESGGGLVQAGGSLRLSCAASGRTFYGNGMGWYRQAPGKRELVAAISYSGASTYYADSVKGRFTISRDNAKNTVCLLMNSLKPEDTAVYYCAAQPSVYCSLFTRASEDYWGQGTQVTVSS,high polyreactivity
9,QVQLVESGGGLVQAGGSLRLSCAASGRTFYGNVMGWYRQPPGKERELVATISFSAGSTYYADSVKGRFTISRDNAKNTVYLQMNSLKPEDTAVYYCNADHTDYATGGGNYWGQGTQVTVSS,low polyreactivity
10,QVQLVESGGGLVQAGGSLRLSCAASGRTFYGYAIGRYIQAPGNERELVAAISRRGGSTNYADSVKGRFTISRDNAKNTVFLQMNSLKPEDTAVYYCNANYYRTHYDYWGQGTQVTVSS,high polyreactivity
11,QVQLVESGGGLVQAGGSLRLSCAASGRTFYGYAMGWYRQAPGKERELVAAISFSGGRTYYADSVKGRFTISRDNAKNTVYLQMNSLKPEDTAVYYCAAVPRGWFSYPSGYDYWGQGTQVTVSS,high polyreactivity
12,QVQLVESGGGLVQAGGSLRLSCAASGRTFYGYAMGWYRQAPGKERELVAAITQRGVSTYADSVKGRFTISRDNAKNTVYLQMNSLKPEDTAVYYCAAEYYAYPYGDDYDYWGQGTQVTVSS,low polyreactivity
13,QVQLVESGGGLVQAGGSLRLSCAASGRTFYGYAMGWYRQAPGKERELVAAITSSGGSTYYADSVKGRFTISRDNAKNTVYLQMNSLKPEDTAVYYCAKTSRYLTGGGDYWGQGTQVTVSS,high polyreactivity
14,QVQLVESGGGLVQAGGSLRLSCAASGRTFYGYAMGWYRQAPGKERELVASISRDASTNYADSVKGRFTISRDNAKNTVYLQMNSLKPEDTAVYYCAADIWYYRYPIYYYSYDYWGLGTQVTVSS,low polyreactivity
15,QVQLVESGGGLVQAGGSLRLSCAASGRTFYGYPMGWYRQAPGKERELVAAISWSGGSTYYADSVKGRFTISRDNAKNTVYLQMNSLKPEDTAVYYCAAYTYSFRANHDYWGQGTQVTVSS,high polyreactivity
16,QVQLVESGGGLVQAGGSLRLSCAASGRTFYGYTMGWYRPAPGKERELVAAITYSGDSTYYADSVKGRFTISRDNAKNTVYLQLNSLKPEDTAVYYCNAVGRYPVYWWGYYYWGQGTQVTVSS,high polyreactivity
17,QVQLVESGGGLVQAGGSLRLSCAASGRTFYHNAMGWYRPAPGKEWELVASIRWSGGSTYADSVKGRFTISRDNAKNTVYLQMNSLKPEDTAGYYCAKVGKSLYPVDYYSWGQGTQVTVSS,high polyreactivity
18,QVQLVESGGGLVQAGGSLRLSCAASGRTFYHYAIGWSRQAPGKEREMVAAITRRGGSTYYADSVKGRFTISRDNAKNTVYLQMNRLKPEDTAVYYCAVDGVTSRRYVYEYWGQGTQVTVSS,high polyreactivity
19,QVQLVESGGGLVQAGGSLRLSCAASGRTFYHYAMGWYRQAPGKESELVAAIDWSTASTYYADSVKGRFTISRDNAKNTVYLQMNSLKPEDTAVYYCATDTAILINFVLYDYWGQGTQVTVSS,low polyreactivity
20,QVQLVESGGGLVQAGGSLRLSCAASGRTFYINAMGWYRQAPGKERELVAGITRGGSTNYADSVKGRFTISRDNAKNTVYLQMNSLKPEDTAVYYCNAARAERWGRGSYPEFDYWGQGTQVTVSS,high polyreactivity
21,QVQLVESGGGLVQAGGSLRLSCAASGRTFYINAMGWYRQAPGKERELVATISRSGGDTYYADSVKGRFTISRDNAKNTVYLQMNSLKPEDTAVYYCNARQYYYRSGAYASRYLYNYWGQGTQVTVSS,high polyreactivity
22,QVQLVESGGGLVQAGGSLRLSCAASGRTFYIYALGWYRQAPGKERELVAAISWGSGSTYYADSVKGRFTISRDNAKNTVYLQMNSLKPEDTAVYYCAAEYAYPSEWTYDYWGQGTQVTVSS,low polyreactivity
23,QVQLVESGGGLVQAGGSLRLSCAASGRTFYIYAMGWYRQAPGKERALDAAITYGGGRTFYADSVKGRFTISRDNAKNTVYLQMNSLKPEDTAVYYCAATVRGKRSTYDYWGQGTQVTVSS,high polyreactivity
24,QVQLVESGGGLVQAGGSLRLSCAASGRTFYIYAMGWYRQAPGKERELVAAISWSGGTTYYADSVKGRFTISRDHAKNTVYLQMNSLKPEDTAVYYCNVYPAYNYFDYDYWGQGTQVTVSS,high polyreactivity
25,QVQLVESGGGLVQAGGSLRLSCAASGRTFYIYAMGWYRQAPGKLRQLVAVIRGSGGSTYYADSVKGRFTISRDNAKYTVYLQMNSQKPEDTAVYYCAARRYQYVWSLYNYWGQGTQVTVSS,high polyreactivity
26,QVQLVESGGGLVQAGGSLRLSCAASGRTFYKNTMGWYRQAPGKERELVAPITRRGGTPYYADSVKGRFTISRDNAKNTVYLQMNSLQPEDTAVYYCAVLTWYFLLQYGYYQEGDYWGQGTQVTVSS,low polyreactivity
27,QVQLVESGGGLVQAGGSLRLSCAASGRTFYKYAMGWYRQAPGKEREFVADISSRGGSTYYADSVKGRFTISRDNAKNTVYLQMNSLKPEDTAVYYCAARPRPRSANGMYYWGQGTQVTVSS,high polyreactivity
28,QVQLVESGGGLVQAGGSLRLSCAASGRTFYKYAMGWYRQAPGKERELVAAISRRGGSTYYADSVKGRFTISRDNAKNTVYLQMNSLKPEDTAVYDCAADPDTKGFYVYRLVRVRYGYWGQGTQVTVSS,high polyreactivity
29,QVQLVESGGGLVQAGGSLRLSCAASGRTFYKYAMGWYRQAPGKERELVAAITSGGGRTYYADSVKGRFTISRDNAKNTVYLQMNSLIPEDTAVYYCNAVLPLAKYEYDSWGQGTQVTVSS,high polyreactivity
30,QVQLVESGGGLVQAGGSLRLSCAASGRTFYKYGMGWYRQAPGKERELVARINSNGGSTYYADSVKGRFTISRDNAKNTVYLQMNSLKPEDTAVYYCARSYVRSYGYYYWGKGTQVTVSS,low polyreactivity
